Assay [1] has as its target receptor of ecotropic murine leukemia virus (UniProt Q09143). In words: cell-based or functional assay.
Assay [2] deals with cell-surface protein expressed on various human cancers (e.g., HeLa and Col-1 cells), antigen of antibody B6.2 (human). Description: cell-based or functional assay.

The values that follow come from patent publication US6534051.

Chain of UniProt Q09143 (Q09143 whole entry): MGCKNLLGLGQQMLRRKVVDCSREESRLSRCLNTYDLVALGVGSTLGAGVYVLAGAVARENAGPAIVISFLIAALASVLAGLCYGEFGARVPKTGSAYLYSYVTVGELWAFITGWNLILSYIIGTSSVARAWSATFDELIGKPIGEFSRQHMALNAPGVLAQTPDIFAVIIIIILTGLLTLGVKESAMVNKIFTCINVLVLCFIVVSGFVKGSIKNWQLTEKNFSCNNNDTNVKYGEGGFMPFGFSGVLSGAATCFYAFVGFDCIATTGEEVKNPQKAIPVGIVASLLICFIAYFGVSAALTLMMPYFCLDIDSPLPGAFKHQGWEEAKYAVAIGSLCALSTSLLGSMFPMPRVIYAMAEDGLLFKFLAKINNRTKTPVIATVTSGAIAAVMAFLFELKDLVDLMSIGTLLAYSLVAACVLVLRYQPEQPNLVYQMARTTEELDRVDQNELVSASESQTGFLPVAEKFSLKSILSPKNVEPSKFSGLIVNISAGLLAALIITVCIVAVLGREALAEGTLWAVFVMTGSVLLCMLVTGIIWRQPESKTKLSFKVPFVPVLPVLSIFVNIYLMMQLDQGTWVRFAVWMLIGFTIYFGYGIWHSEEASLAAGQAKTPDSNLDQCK

Turning to “SNV-MLV-chiC targeting envelope: almost complete SU peptide of ecotropic murine leukemia virus fused to carboxy terminal part of the SNV envelope (as in pTC4)”, the Virus titer (cfu/ml) on CHTG cells, particles with MLV-SNV-chiC + wt SNV in assay [1] came out at 1000 cfu/ml.

Take “TC25 targeting envelope: B6.2 single chain antibody fused to carboxy terminal part of the SNV envelope (same amount of SNV envelope as pTC5) (scFv)”: in assay [2], the Titer (CFU/ml) on COL-1, particles with TC25 + wt-env was 55 CFU/ml; the Titer (CFU/ml) on HeLa, particles with TC25 + wt-env was found to be 100 CFU/ml; the Titer (CFU/ml) on HeLa, particles with TC25 alone came out at 20 CFU/ml.

For the substance “TC26 targeting envelope: B6.2 single chain antibody fused to the SNV envelope at codon 168 (167 in the legend of FIG. 6) (scFv)”, in assay [2], the Titer (CFU/ml) on COL-1, particles with TC26 + wt-env came out at 45 CFU/ml; the Titer (CFU/ml) on HeLa, particles with TC26 + wt-env was 90 CFU/ml; the Titer (CFU/ml) on HeLa, particles with TC26 alone came out at 10 CFU/ml.

Regarding “SNV-MLV-chiD targeting envelope: almost complete SU peptide of ecotropic murine leukemia virus fused to carboxy terminal part of the SNV envelope (as in pTC5)”, the Virus titer (cfu/ml) on CHTG cells, particles with MLV-SNV-chiD + wt SNV in assay [1] stood at 1000 cfu/ml.

On to “TC24 targeting envelope: B6.2 single chain antibody fused to carboxy terminal part of the SNV envelope (same amount of SNV envelope as pTC4) (scFv)”, for which, in assay [2], the Titer (CFU/ml) on COL-1, particles with TC24 + wt-env was determined as 115 CFU/ml; the Titer (CFU/ml) on HeLa, particles with TC24 + wt-env was determined as 250 CFU/ml; the Titer (CFU/ml) on HeLa, particles with TC24 alone came out at 5 CFU/ml.
